Experimental data from patent US20060234944.

Assays:
substrate EVNLAVEFWHDR = biological target: T1, substrate EVNLAVEFWHDR
T1 chain: EVNLAVEFWHDR

substrate EEISEVNLAAEF = biological target: T2, substrate EEISEVNLAAEF
T2 chain: EEISEVNLAAEF

substrate RWHHEVNLAAEF = biological target: T3, substrate RWHHEVNLAAEF
T3 chain: RWHHEVNLAAEF

B1: memapsin 2 (spontaneously activated promemapsin 2-T1; amino acids 43-456 and 45-456 of SEQ ID NO: 8) (protein)
chain: LRLPRETDEEPEEPGRRGSFVEMVDNLRGKSGQGYYVEMTVGSPPQTLNILVDTGSSNFAVGAAPHPFLHRYYQRQLSSTYRDLRKGVYVPYTQGKWEGELGTDLVSIPHGPNVTVRANIAAITESDKFFINGSNWEGILGLAYAEIARPDDSLEPFFDSLVKQTHVPNLFSLQLCGAGFPLNQSEVLASVGGSMIIGGIDHSLYTGSLWYTPIRREWYYEVIIVRVEINGQDLKMDCKEYNYDKSIVDSGTTNLRLPKKVFEAAVKSIKAASSTEKFPDGFWLGEQLVCWQAGTTPWNIFPVISLYLMGEVTNQSFRITILPQQYLRPVEDVATSQDDCYKFAISQSSTGTVMGAVIMEGFYVVFDRARKRIGFAVSACHVHDEFRTAAVEGPFVTLDMEDCGYNIPQTDEST
Question: What does the source list for B1?
Answer: Km (substrate EVNLAVEFWHDR): Km of 83±8.9 mM; rate of catalysis in competitive cleavage assay (MALDI-TOF), relative to EVNLAAEFWHDR (substrate EEISEVNLAAEF): statistically identical rates of catalysis for the upstream EEIS (SEQ ID NO: 52) and the downstream WHDR (SEQ ID NO: 29) sequence additions; rate of catalysis in competitive cleavage assay (MALDI-TOF), relative to EVNLAAEFWHDR (substrate RWHHEVNLAAEF): a 60-fold decrease in the rate of catalysis for the upstream RWHH (SEQ ID NO: 53) sequence addition when compared to the downstream WHDR (SEQ ID NO: 29) sequence addition
